The target of assay [1] is T1, GST-MUPP1 PDZ domain 7 (Homo sapiens (Human)), O75970.
T1 chain: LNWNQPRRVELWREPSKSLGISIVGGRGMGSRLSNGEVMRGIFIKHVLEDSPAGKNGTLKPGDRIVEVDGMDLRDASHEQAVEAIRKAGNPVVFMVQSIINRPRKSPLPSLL
As to the kind of experiment: G' assay. Note: key of the grades not given here.

For assay [2], the target named is T2, GST-MUPP1 PDZ domain 9 (Homo sapiens (Human)), O75970.
T2 chain: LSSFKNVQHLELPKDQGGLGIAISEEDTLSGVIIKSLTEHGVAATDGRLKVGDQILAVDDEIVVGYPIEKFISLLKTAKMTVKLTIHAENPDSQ
The experiment in a line: G' assay. Note: key of the grades not given here.

Assay [3] has as its target T3, GST-PDZ-73 PDZ domain 2 (Homo sapiens (Human)), Q9Y6N9.
T3 chain: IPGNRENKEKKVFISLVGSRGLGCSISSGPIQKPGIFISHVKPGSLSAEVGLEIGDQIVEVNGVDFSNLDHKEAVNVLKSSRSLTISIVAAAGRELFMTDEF
The experiment in a line: G' assay. Note: key of the grades not given here.

For assay [4], the target named is T4, GST-novel PDZ gene PDZ domain 2 (Homo sapiens (Human)), Q9H5P4.
T4 chain: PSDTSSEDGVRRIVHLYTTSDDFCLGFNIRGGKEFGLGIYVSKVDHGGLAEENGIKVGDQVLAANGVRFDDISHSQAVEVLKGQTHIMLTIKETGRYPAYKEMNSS
As to the kind of experiment: G' assay. Note: key of the grades not given here.

The target in assay [5] is T5, GST-FLJ21687 PDZ domain 1 (Homo sapiens (Human)), Q9H6Y5.
T5 chain: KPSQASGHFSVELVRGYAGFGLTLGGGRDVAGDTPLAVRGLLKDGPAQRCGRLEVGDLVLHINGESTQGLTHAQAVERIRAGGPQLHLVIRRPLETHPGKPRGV
As to the kind of experiment: G' assay. Note: key of the grades not given here.

Assay [6] concerns the target T6, GST-INADL PDZ domain 4 (Homo sapiens (Human)), Q8NI35.
T6 chain: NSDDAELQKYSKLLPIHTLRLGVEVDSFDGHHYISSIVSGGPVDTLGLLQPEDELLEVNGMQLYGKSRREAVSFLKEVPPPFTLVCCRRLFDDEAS
As to the kind of experiment: G' assay. Note: key of the grades not given here.

Assay [7] deals with T7, GST-KIAA1719 PDZ domain 4 (Homo sapiens (Human)), Q9C0E4.
T7 chain: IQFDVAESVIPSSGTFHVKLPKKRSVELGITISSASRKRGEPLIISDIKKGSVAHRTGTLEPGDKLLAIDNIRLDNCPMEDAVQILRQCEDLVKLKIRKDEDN
The experiment in a line: G' assay.

Assay [8] has as its target GST-Atrophin-1 Interacting Protein PDZ domain 2 (Homo sapiens (Human)), Q86UL8. As to the kind of experiment: G' assay. Note: key of the grades not given here.
Assay [9] has as its target T8, GST-TIP-1 (Example 3) (human), O14907.
T8 chain: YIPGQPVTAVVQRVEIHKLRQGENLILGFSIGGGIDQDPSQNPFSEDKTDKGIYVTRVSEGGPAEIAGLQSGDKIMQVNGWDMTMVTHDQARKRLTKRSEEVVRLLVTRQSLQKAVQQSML
The experiment in a line: ratio of G assay Kd values.

Assay [10] has as its target T9, GST-GRIP 1 PDZ domain 7 (Homo sapiens (Human)), Q9Y3R0.
T9 chain: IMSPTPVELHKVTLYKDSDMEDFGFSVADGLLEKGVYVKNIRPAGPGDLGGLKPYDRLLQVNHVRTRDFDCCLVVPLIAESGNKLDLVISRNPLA
As to the kind of experiment: G' assay.

In assay [11] the target is T10, GST-KIAA0303 PDZ domain 1 (Homo sapiens (Human)), O15021.
T10 chain: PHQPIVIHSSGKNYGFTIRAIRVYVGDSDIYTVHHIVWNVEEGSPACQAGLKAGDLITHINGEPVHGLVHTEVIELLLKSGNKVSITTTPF
The experiment in a line: G' assay.

Assay [12] deals with T11, GST-MUPP1 PDZ domain 12 (Homo sapiens (Human)), O75970.
T11 chain: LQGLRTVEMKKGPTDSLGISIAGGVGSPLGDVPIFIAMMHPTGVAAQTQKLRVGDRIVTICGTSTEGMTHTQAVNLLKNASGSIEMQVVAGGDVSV
The experiment in a line: G' assay.

Assay [13] deals with T12, GST-TIAM 2 PDZ domain 1 (Homo sapiens (Human)), Q8IVF5.
T12 chain: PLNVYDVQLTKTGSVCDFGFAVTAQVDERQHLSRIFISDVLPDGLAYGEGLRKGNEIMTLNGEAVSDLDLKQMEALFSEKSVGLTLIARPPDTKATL
The experiment in a line: G' assay.

Assay [14] deals with T13, GST-DLG1 PDZ domain 3 (Homo sapiens), Q12959.
T13 chain: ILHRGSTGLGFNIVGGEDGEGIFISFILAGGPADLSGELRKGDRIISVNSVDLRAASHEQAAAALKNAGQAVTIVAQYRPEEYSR
As to the kind of experiment: G' assay.

The target of assay [15] is T14, GST-GRIP 1 PDZ domain 6 (Mus musculus (Mouse)), Q925T6.
T14 chain: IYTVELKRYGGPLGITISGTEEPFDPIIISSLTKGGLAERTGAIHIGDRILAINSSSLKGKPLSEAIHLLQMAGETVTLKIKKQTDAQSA
The experiment in a line: G' assay.

Assay [16] addresses T15, GST-KIAA1415 PDZ domain 1 (Homo sapiens (Human)), Q8TCU6.
T15 chain: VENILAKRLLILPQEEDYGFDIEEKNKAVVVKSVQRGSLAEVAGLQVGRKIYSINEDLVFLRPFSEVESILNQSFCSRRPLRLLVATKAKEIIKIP
As to the kind of experiment: G' assay.

For assay [17], the target named is T16, GST-PDZK1 PDZ domain 1 (Homo sapiens (Human)), Q5T2W1.
T16 chain: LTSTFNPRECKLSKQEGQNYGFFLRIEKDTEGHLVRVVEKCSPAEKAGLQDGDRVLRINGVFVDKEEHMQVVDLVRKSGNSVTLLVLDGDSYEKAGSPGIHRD
As to the kind of experiment: G' assay.

For assay [18], the target named is T17, GST-ENIGMA PDZ domain 1 (Homo sapiens (Human)), Q9NR12.
T17 chain: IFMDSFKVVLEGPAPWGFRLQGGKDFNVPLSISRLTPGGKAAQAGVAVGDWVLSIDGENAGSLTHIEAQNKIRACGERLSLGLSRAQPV
As to the kind of experiment: G' assay.

Assay [19] addresses T18, GST-LIM Protein PDZ domain 1 (Homo sapiens (Human)), Q96HC4.
T18 chain: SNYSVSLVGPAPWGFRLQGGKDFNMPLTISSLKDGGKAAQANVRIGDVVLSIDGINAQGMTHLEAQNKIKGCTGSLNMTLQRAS
As to the kind of experiment: G' assay.

GST-Atrophin-1 Interacting Protein PDZ domain 2 (Homo sapiens (Human)), Q86UL8, sequence (Q86UL8 other isoform, or with tags, fused parts or gaps): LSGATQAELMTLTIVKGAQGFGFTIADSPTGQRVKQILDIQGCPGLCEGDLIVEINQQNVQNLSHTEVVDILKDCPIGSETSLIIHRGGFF

For the molecule KTMPAAMYRLLTAQEQPVYI (modifications not checked) [MINT-1], the Classification in [1] and in [2] was 3 A450 class throughout.
Take PIPAGGCTFSGIFPTLTSPL (modifications not checked) [KIA 1481]: the Classification in [3] and in assay [4] was 1 A450 class in each case.
Take HDFRRAFKKILARGDRKRIV (modifications not checked) [alpha-2A Adrenergic receptor]: the Classification worked out at 1 A450 class in assay [5], 1 A450 class in [6] and 3 A450 class in assay [7].
As for QISPGGLEPPSEKHFRETEV (modifications not checked) [TAX], the Classification in assay [8] worked out at 1 A450 class. The fold stronger binding than CD95 in assay [9] is greater than 3000 fold.
For the molecule ELLQFCRTPNPALKNGQYWV (modifications not checked) [CSPG4 (chondroitin sulfae proteoglycan 4, melanoma-associated)], the Classification in [10] is 5 A450 class; in [11], 1 A450 class; in assay [12], 1 A450 class; in assay [13] it was 3 A450 class.
On to ILNSIQVMRAQMNQIQSVEV (modifications not checked) [ephrin B2], for which the Classification in [14] was 1 A450 class; in assay [15], 3 A450 class; in assay [16], 1 A450 class; in assay [17] it was 1 A450 class.
As for VPGALDYAAFSSALYGESDL (modifications not checked) [a-actinin 2], the Classification in [18] is 5 A450 class; in [19], 4 A450 class.

The values are drawn from US20050282743A1, “Molecular interactions in cells” (Arbor Vita Corporation, priority 2001, published 2005).
